This note sets out measurements from patent US20090022717A1 (CHEMOCENTRYX, published 2009).

B1: SEQ ID NO 14 (peptide)
peptide: YSDINWPC
notes: also called Peptide 2.2.3
B2: SEQ ID NO 11 (peptide)
peptide: DYSEPGNFSDISWPC
notes: also called Peptide 9C4
B3: monoclonal antibody 11G8 (antibody, V domains shown)
VH: EVKLVESGGDLVQPGGSLKLSCATSGFTFSDYYMFWVRQTPEKRLEWVAYITNGGDRSYYSDTVTGRFIISRDNAKNTLYLQMSRLKSEDTAMYYCARQGNWAAWFVYWGQGTLVTVSA
VL: DVLMTQTPLSLPVSLGDQASISCRSSHYIVHSDGNTYLEWYLQKPGQSPKLLIYKVSNRFSGVPDRFSGSGSGTDFTLKISRVEAEDLGIYYCFQGSHVPLTFGAGTKLELKR
notes: Mouse hybridoma monoclonal raised by gene gun immunisation with CXCR7 cDNA
B4: peptide 2.3.4 (peptide)
peptide: PCNSSDCIV
B5: SEQ ID NO 12 (peptide)
peptide: FSDISWPC
notes: also called Peptide 2.2.1
B6: SEQ ID NO 16 (peptide)
peptide: WPCNSSDCIVV
notes: also called Peptide 2.2.5
B7: SEQ ID NO 8 (peptide)
peptide: DISWPCNSSDCI
notes: also called Peptide 2.1.1
B8: monoclonal antibody 6E10 (antibody, V domains shown)
VH: EVKLDETGGGLVQPGRPMKLSCVASGFTFSDYWMNWVRQSPEKGLEWVGQIRNKPYNYETYYSDSVKGRFTISRDDSKSSVYLQMNNLRTEDTGIYYCTSLRYWGQGTLVTVSA
VL: DIVMTQSPSSLTVTAGEKVTMSCKSSHSLLNSGIQKNFLTWYQQKPGQPPKVLIYWAFTRESGVPERFTGSGSGTDFTLTISSVQAEDLAVYYCQSDYTYPFTFGSGTKLEIKR
notes: as for B3
B9: SEQ ID NO 2 (peptide)
peptide: FSDISWPCNSSDCIVVD
notes: also called Peptide 2
B10: SEQ ID NO 18 (peptide)
peptide: NFSDISWP
notes: also called Peptide 2.3.1
B11: SEQ ID NO 9 (peptide)
peptide: SWPCNSSDCIVV
notes: also called Peptide 2.1.2
B12: SEQ ID NO 17 (peptide)
peptide: NWPCNSSDCIVV
notes: also called Peptide 2.2.6

The target of assay [1] is B3. The assay can be described thus: peptide competition of antibody staining of CXCR7-expressing cells, FACS. The procedure:
(§1) We have established that both 11G8 and 6E10 antibodies recognize CXCR7 receptor expressed on the surface of cells by FACS. This is represented as an increase in florescent signal (filled) over background (open line) along the X axis of FACS plot (FIG. 2). To interrogate which amino acid residues 11G8 and 6E10 recognize and bind to, a number of short peptides (0.5-5 μg) derived from the CXCR7 sequence were pre-incubated with either antibody (0.5-5 μg) in 100 μl PBS. This mixture was then incubated with 500,000 cells expressing CXCR7 for 15 minutes at room temperature. If the antibody recognized the sequence encoded by the peptide, then the peptide would effectively compete antibody away from binding to the cell associated receptor resulting in a subsequent reduction in florescence on a FACS plot. […] These readouts are exemplified in FIG. 2 with “no peptide” representing […] antibody staining, “peptide 2.2.1” representing peptide competition, and “peptide 2.3.4” representing no peptide competition. Through slight alternations of the peptide sequence in this assay, the minimal peptide sequence necessary for antibody recognition was discerned. FIG. 3 illustrates a summary of peptides that competed with either antibody 11G8 or 6E10.

In the next assay the target is T1, CXCR2 (UniProt P25025 1-360, limits assumed).
T1 construct: whole, on cells
T1 sequence (looked up): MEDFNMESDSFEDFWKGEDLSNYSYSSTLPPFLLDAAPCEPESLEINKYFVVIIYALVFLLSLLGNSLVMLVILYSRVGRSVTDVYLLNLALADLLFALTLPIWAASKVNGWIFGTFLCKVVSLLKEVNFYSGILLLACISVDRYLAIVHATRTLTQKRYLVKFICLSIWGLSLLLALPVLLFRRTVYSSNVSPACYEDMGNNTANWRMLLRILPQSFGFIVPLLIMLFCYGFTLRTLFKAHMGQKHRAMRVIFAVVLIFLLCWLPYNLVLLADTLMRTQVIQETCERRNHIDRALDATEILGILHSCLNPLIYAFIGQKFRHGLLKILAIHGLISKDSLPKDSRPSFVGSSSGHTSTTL
The assay can be described thus: flow cytometry on transfected HEK 293 cells. (In general: In flow cytometry, cells or beads pass a laser one at a time.)

For another assay, the target named is T2, mouse CXCR7 (mouse, UniProt P56485 1-362).
T2 construct: whole, on cells; Endogenous on the mouse mammary tumor line 4T1 and on Lewis lung carcinoma cells; also E13 fetal mouse sections; also called mouse homolog of CXCR7
T2 sequence (P56485 whole entry): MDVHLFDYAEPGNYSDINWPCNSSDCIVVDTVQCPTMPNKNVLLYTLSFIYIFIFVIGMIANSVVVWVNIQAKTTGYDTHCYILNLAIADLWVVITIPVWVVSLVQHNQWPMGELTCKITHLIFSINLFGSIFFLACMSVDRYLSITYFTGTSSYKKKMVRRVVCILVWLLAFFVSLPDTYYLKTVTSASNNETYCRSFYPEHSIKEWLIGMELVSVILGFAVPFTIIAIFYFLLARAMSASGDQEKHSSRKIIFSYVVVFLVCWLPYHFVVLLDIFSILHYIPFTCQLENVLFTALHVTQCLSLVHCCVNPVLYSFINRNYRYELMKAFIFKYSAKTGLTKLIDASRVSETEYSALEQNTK
The assay can be described thus: detection on mouse 4T1 mammary tumor cells and Lewis lung carcinoma cells.

The target of the next assay is T3, human CXCR7 (human, UniProt P25106 1-362).
T3 construct: also called RDC1; CCX-CKR2
T3 sequence (P25106 whole entry): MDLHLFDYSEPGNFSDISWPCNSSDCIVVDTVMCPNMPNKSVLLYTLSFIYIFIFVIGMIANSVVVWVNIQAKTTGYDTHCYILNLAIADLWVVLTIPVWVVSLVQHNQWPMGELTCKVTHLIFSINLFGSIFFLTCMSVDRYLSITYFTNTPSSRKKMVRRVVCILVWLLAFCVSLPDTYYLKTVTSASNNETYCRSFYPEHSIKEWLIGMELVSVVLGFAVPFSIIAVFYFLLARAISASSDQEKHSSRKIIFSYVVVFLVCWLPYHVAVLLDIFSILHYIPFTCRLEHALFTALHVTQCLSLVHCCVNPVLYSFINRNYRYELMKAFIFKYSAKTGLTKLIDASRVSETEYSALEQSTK
The assay can be described thus: flow cytometry on CXCR7 transfectants (HEK 293) and on HeLa and MCF-7 cells.

Assay [2] deals with B3. The experiment in a line: peptide pre-incubated with antibody, then FACS staining of CXCR7-expressing cells (FIG. 2, 11G8 on 435-CXCR7 cells). The procedure:
as §1

The assay “monoclonal antibody 6E10” concerns the target B8. The experiment in a line: peptide competition of antibody staining of CXCR7-expressing cells, FACS. The protocol: as §1

In the case of B1, the binding result with monoclonal antibody 11G8 [1] is on record as “binds”.
Regarding B2, the binding result with monoclonal antibody 11G8 [1] is listed as “binds”.
B3: the results for the binding result in the assay with CXCR2, with mouse CXCR7 and with human CXCR7 were “no binding”, “binds” and “binds”, respectively.
As for B4, the binding result with monoclonal antibody 11G8 [2] is given as “no binding”.
Consider B5, for which, in the assay with monoclonal antibody 11G8 [1], the binding result was “binds”.
For B6, in the assay with monoclonal antibody 6E10, the binding result was “binds”.
As to B7, the binding result with monoclonal antibody 6E10 is “binds”.
On to B8, for which the binding result with CXCR2 is given as “no binding”; with mouse CXCR7 it was “binds”; with human CXCR7 it was “binds”.
As for B9, the binding result with monoclonal antibody 6E10 and with monoclonal antibody 11G8 [1] was “binds” each time.
On to B10, for which, in the assay with monoclonal antibody 11G8 [1], the binding result is “binds”.
In the case of B11, the binding result with monoclonal antibody 6E10 was “binds”.
Turning to B12, the binding result in the assay with monoclonal antibody 6E10 is “binds”.
